# Data published in the Immune Epitope Database (IEDB).
# What was measured:
# [1] = target: HLA-B*07:02; test: IEDB peptide-MHC binding, purified MHC/competitive/radioactivity; filed as Kd, often an IC50 or EC50 that approximates it; ≥ and ≤ were set here for values at or beyond the usual limits of such assays
# [2] = target: HLA-B*18:01; test: IEDB peptide-MHC binding, purified MHC/direct/fluorescence; filed as Kd, often an IC50 or EC50 that approximates it; ≥ and ≤ were set here for values at or beyond the usual limits of such assays; conditions: source organism: Mammarenavirus lassaense
# [3] = target: HLA-B*40:01; test: as above; conditions: source organism: Mammarenavirus lassaense
# [4] = target: HLA-B*15:01; test: IEDB peptide-MHC binding, purified MHC/competitive/radioactivity; filed as Kd, often an IC50 or EC50 that approximates it; ≥ and ≤ were set here for values at or beyond the usual limits of such assays
# [5] = target: HLA-B*35:01; test: as above
# [6] = target: HLA-B*40:01; test: as above
# [7] = target: HLA-B*44:02; test: as above
# [8] = target: HLA-A*30:01; test: as above
# [9] = target: HLA-B*51:01; test: as above; conditions: source organism: Dengue virus 2 Jamaica/1409/1983
# [10] = target: HLA-B*53:01; test: as above
# [11] = target: HLA-A*30:02; test: as above
# [12] = target: HLA-B*44:03; test: as above
# [13] = target: HLA-A*03:01; test: as above; conditions: source organism: Mammarenavirus brazilense
# [14] = target: HLA-A*31:01; test: as above; conditions: source organism: Mammarenavirus brazilense
# [15] = target: HLA-A*33:01; test: as above; conditions: source organism: Mammarenavirus brazilense
# [16] = target: HLA-A*68:01; test: as above; conditions: source organism: Mammarenavirus brazilense
# [17] = target: HLA-A*24:03; test: IEDB peptide-MHC binding, purified MHC/direct/fluorescence; filed as Kd, often an IC50 or EC50 that approximates it; ≥ and ≤ were set here for values at or beyond the usual limits of such assays
# [18] = target: HLA-B*51:01; test: IEDB peptide-MHC binding, purified MHC/competitive/fluorescence; filed as Kd, often an IC50 or EC50 that approximates it; ≥ and ≤ were set here for values at or beyond the usual limits of such assays; conditions: source organism: Entamoeba histolytica HM-1:IMSS
# [19] = target: HLA-A*32:01; test: IEDB peptide-MHC binding, purified MHC/competitive/radioactivity; filed as Kd, often an IC50 or EC50 that approximates it; ≥ and ≤ were set here for values at or beyond the usual limits of such assays
# [20] = target: HLA-A*01:01; test: as above
# [21] = target: HLA-A*26:01; test: as above
# [22] = target: HLA-A*29:02; test: as above
# [23] = target: HLA-A*23:01; test: as above; conditions: source organism: Mammarenavirus machupoense
# [24] = target: HLA-A*24:02; test: as above; conditions: source organism: Mammarenavirus machupoense
# [25] = source organism: Dengue virus 4 Philippines/H241/1956
# [26] = source organism: Vaccinia virus WR
# [27] = source organism: Dengue virus 3 Martinique/1243/1999
# [28] = source organism: Dengue virus 1 Brazil/97-11/1997
# [29] = source organism: Vaccinia virus Copenhagen
# [30] = source organism: Dengue virus 2 Jamaica/1409/1983
# [31] = source organism: Dengue virus 1 Singapore/S275/1990
# [32] = source organism: Dengue virus 4 Dominica/814669/1981
# [33] = source organism: Dengue virus 3 Sri Lanka/1266/2000
# [34] = source organism: Lassa virus Josiah
# [35] = source organism: Mammarenavirus machupoense
sequence,measurement,setting,value
SPAATQKAAL,Kd,[1]; source organism: Dengue virus 4 Singapore/8976/1995,3.66 nM
MEGLKLLSL,Kd,[2],222 nM
same,Kd,[3],160 nM
SPGYVLGIFL,Kd,[1]; [25],116 nM
KIRCEITSF,Kd,[4]; [26],4.28 nM
LPVWLAHKVA,Kd,[5]; [27],6680 nM
VEDERFWDL,Kd,[6]; [28],155 nM
GESSPSPTV,Kd,[6]; [27],9.6 nM
same,Kd,[7]; [27],744 nM
ISKTSIACF,Kd,[4]; [29],10800 nM
VTNIELEPPF,Kd,[8]; [25],468 nM
IPEGRVIDL,Kd,[1]; [27],140 nM
MATFKMRPMF,Kd,[8]; [28],1790 nM
PPFGDSYII,Kd,[9],9.78 µM
same,Kd,[10]; [30],1740 nM
SLVMLLVHY,Kd,[11]; [25],1600 nM
same,Kd,[4]; [25],419 nM
RTKDTRIKA,Kd,[8]; [26],0.196 nM
KEISSMLNI,Kd,[6]; [28],262 nM
same,Kd,[7]; [28],38.9 nM
same,Kd,[12]; [28],76.6 nM
LEFFLIVLL,Kd,[6]; [30],123 nM
same,Kd,[12]; [30],17600 nM
STYYVHENK,Kd,[13],5.16 nM
same,Kd,[8]; source organism: Mammarenavirus brazilense,3320 nM
same,Kd,[14],57.3 nM
same,Kd,[15],454 nM
same,Kd,[16],13 nM
GVYPLSIPAT,Kd,[8]; [31],1900 nM
MELIDGISL,Kd,[6]; [32],2.29 nM
same,Kd,[7]; [32],375 nM
same,Kd,[12]; [32],226 nM
RLKGESRKTF,Kd,[4]; [27],300 nM
RYPIDPFLL,Kd,[17]; source organism: Mammarenavirus lassaense,5.6 nM
CPLNQLEQF,Kd,[18],≥ 20 µM
MERFNCSSF,Kd,[4]; [29],1.62 nM
IPYDPKFEK,Kd,[9],2.2 µM
MILPAALAF,Kd,[19]; [33],0.0295 µM
same,Kd,[4]; [33],6.87 nM
same,Kd,[5]; [33],394 nM
YFHAELNYL,Kd,[17]; source organism: Vibrio vulnificus,3.7 nM
CWLVSNGSY,Kd,[20]; [34],13.9 µM
same,Kd,[21]; [34],≥ 34.4 µM
same,Kd,[22]; [34],543 nM
same,Kd,[8]; [34],16900 nM
same,Kd,[11]; [34],6.3 nM
same,Kd,[19]; [34],18.8 µM
DIMGIPYCNY,Kd,[20]; [34],≥ 28.9 µM
same,Kd,[21]; [34],0.541 µM
same,Kd,[22]; [34],105 nM
same,Kd,[8]; [34],≥ 70400 nM
same,Kd,[11]; [34],444 nM
same,Kd,[19]; [34],≥ 69.9 µM
ERRYVNVHF,Kd,[4]; [26],7380 nM
RMAILGDTAW,Kd,[4]; [30],233 nM
same,Kd,[7]; [30],451 nM
same,Kd,[10]; [30],21.4 nM
MAVFKMSPGY,Kd,[11]; [25],501 nM
same,Kd,[5]; [25],667 nM
GPGHEEPVPM,Kd,[5]; [27],7200 nM
APTRVVAAEM,Kd,[5]; [27],20.3 nM
MEKASFIEV,Kd,[6]; [30],1210 nM
same,Kd,[7]; [30],320 nM
ITNELNYVLW,Kd,[10]; [25],483 nM
YKELCDAVY,Kd,[20]; [35],4.06 µM
same,Kd,[23],≥ 40.5 µM
same,Kd,[24],≥ 77.5 µM
same,Kd,[21]; [35],≥ 77.9 µM
same,Kd,[22]; [35],3200 nM
same,Kd,[8]; [35],≥ 54300 nM
same,Kd,[11]; [35],1420 nM
same,Kd,[19]; [35],≥ 77.8 µM
GYAGTLQSL,Kd,[17]; source organism: Mycobacterium tuberculosis variant bovis,0.9 nM
IMMLKLLTDF,Kd,[4]; source organism: Dengue virus 1 Nauru/West Pac/1974,18.8 nM
KEISNMLNIM,Kd,[6]; [31],8.34 nM
LARWGTFKK,Kd,[8]; [27],316 nM
IIKSSYVFK,Kd,[8]; [26],10.9 nM
TTTDSRCPTQ,Kd,[8]; [28],≥ 51200 nM
SPKRLATAIA,Kd,[1]; [27],34.1 nM
HAIVINPFV,Kd,[8]; [26],221 nM
CPLLVNTEPE,Kd,[10]; [25],1650 nM
